[ ]: non-standard residue; d: D form. Phe(2-Cl) = N[C@@H](Cc1ccccc1Cl)C(=O)O
What was measured:
VASP-EVH1 domain [1] = molecular target: VASP-EVH1 domain (UniProt P50552); experiment: ITC
VASP-EVH1 domain [2] = molecular target: VASP-EVH1 domain (UniProt P50552); experiment: fluorescence titration (FT)
VASP-EVH1 domain [3] = molecular target: T1, VASP-EVH1 domain (UniProt P50552 1-115); experiment: ITC
T1 construct: domain: EVH1

VASP-EVH1 domain [4] = molecular target: T1, VASP-EVH1 domain; experiment: fluorescence titration (FT)

Chain of VASP-EVH1 domain (UniProt P50552) (P50552 1-115 limits assumed): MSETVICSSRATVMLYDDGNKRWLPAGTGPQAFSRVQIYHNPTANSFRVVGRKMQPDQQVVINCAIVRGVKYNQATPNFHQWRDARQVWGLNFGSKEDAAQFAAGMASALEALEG
T1 sequence (P50552 1-115 limits assumed): as above

Molecule	Kd (VASP-EVH1 domain [1])	ΔG (VASP-EVH1 domain [1])	Kd (VASP-EVH1 domain [2])	ΔG (VASP-EVH1 domain [2])	Kd (VASP-EVH1 domain [3])	ΔG (VASP-EVH1 domain [3])	Kd (VASP-EVH1 domain [4])	ΔG (VASP-EVH1 domain [4])
Ac-Phe(2-Cl)-PP[ProM-1]-OH (peptide)	14.1 µM	-6.62 kcal/mol	3.2 µM	-7.5 kcal/mol	–	–	–	–
Ac-Phe(2-Cl)-PP[ProM-9]-OH (peptide)	8 µM	-6.96 kcal/mol	0.4 µM	-8.77 kcal/mol	–	–	–	–
Ac-Phe(2-Cl)-[ProM-2][ProM-4]-OH	9.7 µM	-6.84 kcal/mol	1.6 µM	-7.91 kcal/mol	–	–	–	–
Ac-FPPPP-OH (Starting ligand shortened to the FPPPP core motif; also called FPPPP core motif ligand) [Ac-FPPPP-OH]	–	–	–	–	1300 µM	-3.94 kcal/mol	780 µM	-4.23 kcal/mol
Ac-[Phe(2-Cl)]PPPP-OH (SMILES CC(=O)N[C@@H](Cc1ccccc1Cl)C(=O)N1CCC[C@H]1C(=O)N1CCC[C@H]1C(=O)N1CCC[C@H]1C(=O)N1CCC[C@H]1C(=O)O) [Ac-Phe(2-Cl)-PPPP-OH]	–	–	–	–	18 µM	-6.45 kcal/mol	13 µM	-6.64 kcal/mol

From patent US20170320910A1 (published 2017)
